B1: GFP-CRY1 (N. benthamiana) [Arabidopsis] / cLUC-COP1 [Arabidopsis] (parent)
chain 1: MSGSVSGCGSGGCSIVWFRRDLRVEDNPALAAAVRAGPVIALFVWAPEEEGHYHPGRVSRWWLKNSLAQLDSSLRSLGTCLITKRSTDSVASLLDVVKSTGASQIFFNHLYDPLSLVRDHRAKDVLTAQGIAVRSFNADLLYEPWEVTDELGRPFSMFAAFWERCLSMPYDPESPLLPPKKIISGDVSKCVADPLVFEDDSEKGSNALLARAWSPGWSNGDKALTTFINGPLLEYSKNRRKADSATTSFLSPHLHFGEVSVRKVFHLVRIKQVAWANEGNEAGEESVNLFLKSIGLREYSRYISFNHPYSHERPLLGHLKFFPWAVDENYFKAWRQGRTGYPLVDAGMRELWATGWLHDRIRVVVSSFFVKVLQLPWRWGMKYFWDTLLDADLESDALGWQYITGTLPDSREFDRIDNPQFEGYKFDPNGEYVRRWLPELSRLPTDWIHHPWNAPESVLQAAGIELGSNYPLPIVGLDEAKARLHEALSQMWQLEAASRAAIENGSEEGLGDSAEVEEAPIEFPRDITMEETEPTRLNPNRRYEDQMVPSITSSLIRPEEDEESSLNLRNSVGDSRAEVPRNMVNTNQAQQRRAEPASNQVTAMIPEFNIRIVAESTEDSTAESSSSGRRERSGGIVPEWSPGYSEQFPSEENGIGGGSTTSSYLQNHHEILNWRRLSQTG
chain 2: MEEISTDPVVPAVKPDPRTSSVGEGANRHENDDGGSGGSEIGAPDLDKDLLCPICMQIIKDAFLTACGHSFCYMCIITHLRNKSDCPCCSQHLTNNQLYPNFLLDKLLKKTSARHVSKTASPLDQFREALQRGCDVSIKEVDNLLTLLAERKRKMEQEEAERNMQILLDFLHCLRKQKVDELNEVQTDLQYIKEDINAVERHRIDLYRARDRYSVKLRMLGDDPSTRNAWPHEKNQIGFNSNSLSIRGGNFVGNYQNKKVEGKAQGSSHGLPKKDALSGSDSQSLNQSTVSMARKKRIHAQFNDLQECYLQKRRQLADQPNSKQENDKSVVRREGYSNGLADFQSVLTTFTRYSRLRVIAEIRHGDIFHSANIVSSIEFDRDDELFATAGVSRCIKVFDFSSVVNEPADMQCPIVEMSTRSKLSCLSWNKHEKNHIASSDYEGIVTVWDVTTRQSLMEYEEHEKRAWSVDFSRTEPSMLVSGSDDCKVKVWCTRQEASVINIDMKANICCVKYNPGSSNYIAVGSADHHIHYYDLRNISQPLHVFSGHKKAVSYVKFLSNNELASASTDSTLRLWDVKDNLPVRTFRGHTNEKNFVGLTVNSEYLACGSETNEVYVYHKEITRPVTSHRFGSPDMDDAEEEAGSYFISAVCWKSDSPTMLTANSQGTIKVLVLAA

In the first assay the parent is B1. Briefly: luciferase complementation imaging (LCI) competition assay (cLUC-COP1 + HY5-nLUC). The following applies: with cLUC-COP1 [Arabidopsis]; transfected N. benthamiana leaves, n = 22, CCD camera; value is the mean ('+'), median about 0.95; GFP-NLS-GUS control = 1; higher signal = less displacement …; parent: 0.6; read off a plot.
Regarding chain 1 V548A P549A, the screen value was found to be 1.1.

The variants in another assay derive from B1. Briefly: mammalian three-hybrid (M3H) competition assay (displacement of HY5-VP16 from E-COP1). Particulars: with E-COP1 [Arabidopsis]; CHO-K1 cells, blue light (10 μmol m−2 s−1), 24 h; higher signal = less displacement of HY5 by the CRY1 variant; GFP control est. 150; parent: 30; read off a plot.
In the case of chain 1 V548A P549A, the screen value (Au (SEAP/sNLuc)) was found to be 150.

Staying with this assay, now noted: with E-COP1 [Arabidopsis]; CHO-K1 cells, darkness, 24 h; higher signal = less displacement of HY5 by the CRY1 variant; GFP control est. 150; parent: 76; read off a plot.
As for chain 1 V548A P549A, the screen value (Au (SEAP/sNLuc)) stood at 130.

The values are drawn from publication PMC11886768 (2025).
